The labels stand for the following.
B1: glmS ribozyme (parent)
chain: AUAAAAGCGCCAGAACUACAGAAAUGUAGUUGACGAGGAGGAGGUUUAUCGAAUUUUCGGCGGAUGCCUCCAAA

What all share (conditions): with glucosamine-6-phosphate
The variants in series [1] derive from B1. The experiment in a line: self-cleavage kobs at 40 uM GlcN6P; higher = faster cleavage; RNA array. A digest of the protocol:
(§1)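 Glucosamine-6-phosphate in HEPES/KCl/Mg(OAc)2 buffer, at 40 μM to 10 mM, was flowed over barcoded ribozyme variants transcribed in situ by E. coli RNA polymerase on sequenced MiSeq chips. Tracking was through a hybridised Cy3 probe at 37 °C. kobs, kcat and KM came from exponential decay fits and weighted Michaelis–Menten fits of normalised per-tile medians.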

Series [2] covers variants of B1. The experiment in a line: self-cleavage kobs at 160 uM GlcN6P; higher = faster cleavage; RNA array. A digest of the protocol:
as §1

Variants of B1 are the subject of series [3]. The series is described as follows: self-cleavage kobs at 640 uM GlcN6P; higher = faster cleavage; RNA array. In a few lines:
as §1

In series [4] the parent is B1. The experiment in a line: self-cleavage kobs at 2500 uM GlcN6P; higher = faster cleavage; RNA array. In a few lines: as §1
In series [5] the parent is B1. The experiment in a line: self-cleavage kobs at 10000 uM GlcN6P; higher = faster cleavage; RNA array. A digest of the protocol:
as §1

± gives the standard error. Fewer inactive variants are shown than the library holds. Bounds are passed on as bounds.

In the case of C16A G41C, in the series with glucosamine-6-phosphate [1], the “self-cleavage kobs at 40 uM GlcN6P” value was less than 1e-05 s⁻¹. The “self-cleavage kobs at 160 uM GlcN6P” value in the series with glucosamine-6-phosphate [2] was less than 1e-05 s⁻¹. In addition, the “self-cleavage kobs at 640 uM GlcN6P” value with glucosamine-6-phosphate [3] is less than 1e-05 s⁻¹.
On to G51C U57G, for which the “self-cleavage kobs at 40 uM GlcN6P” value in the series with glucosamine-6-phosphate [1] was less than 1e-05 s⁻¹. Also, the “self-cleavage kobs at 160 uM GlcN6P” value with glucosamine-6-phosphate [2] is less than 1e-05 s⁻¹. In addition, the “self-cleavage kobs at 640 uM GlcN6P” value with glucosamine-6-phosphate [3] is less than 1e-05 s⁻¹. In addition, the “self-cleavage kobs at 2500 uM GlcN6P” value with glucosamine-6-phosphate [4] is less than 1e-05 s⁻¹.
As to G35C U57A, the “self-cleavage kobs at 40 uM GlcN6P” value with glucosamine-6-phosphate [1] is less than 1e-05 s⁻¹. Moreover, in the series with glucosamine-6-phosphate [2], the “self-cleavage kobs at 160 uM GlcN6P” value was less than 1e-05 s⁻¹. Also, in the series with glucosamine-6-phosphate [3], the “self-cleavage kobs at 640 uM GlcN6P” value is less than 1e-05 s⁻¹. The “self-cleavage kobs at 2500 uM GlcN6P” value in the series with glucosamine-6-phosphate [4] was less than 1e-05 s⁻¹.
On to G62A A64C, for which, in the series with glucosamine-6-phosphate [1], the “self-cleavage kobs at 40 uM GlcN6P” value was less than 1e-05 s⁻¹. The “self-cleavage kobs at 160 uM GlcN6P” value in the series with glucosamine-6-phosphate [2] was less than 1e-05 s⁻¹. For the same variant, in the series with glucosamine-6-phosphate [3], the “self-cleavage kobs at 640 uM GlcN6P” value is less than 1e-05 s⁻¹. Besides, the “self-cleavage kobs at 2500 uM GlcN6P” value with glucosamine-6-phosphate [4] is less than 1e-05 s⁻¹. Further, the “self-cleavage kobs at 10000 uM GlcN6P” value in the series with glucosamine-6-phosphate [5] was less than 1e-05 s⁻¹.
For the variant A15C C16G G41A, the “self-cleavage kobs at 40 uM GlcN6P” value with glucosamine-6-phosphate [1] was less than 1e-05 s⁻¹.
Turning to G9A G43A, in the series with glucosamine-6-phosphate [1], the “self-cleavage kobs at 40 uM GlcN6P” value was less than 1e-05 s⁻¹. Besides, the “self-cleavage kobs at 640 uM GlcN6P” value with glucosamine-6-phosphate [3] was less than 1e-05 s⁻¹. Also, the “self-cleavage kobs at 2500 uM GlcN6P” value with glucosamine-6-phosphate [4] is less than 1e-05 s⁻¹.
In the case of C11U U30C A52C, in the series with glucosamine-6-phosphate [1], the “self-cleavage kobs at 40 uM GlcN6P” value is less than 1e-05 s⁻¹.
As to A6C G43C, the “self-cleavage kobs at 40 uM GlcN6P” value in the series with glucosamine-6-phosphate [1] was less than 1e-05 s⁻¹. Besides, the “self-cleavage kobs at 160 uM GlcN6P” value with glucosamine-6-phosphate [2] is less than 1e-05 s⁻¹. In the series with glucosamine-6-phosphate [3], the “self-cleavage kobs at 640 uM GlcN6P” value was less than 1e-05 s⁻¹. Also, the “self-cleavage kobs at 10000 uM GlcN6P” value with glucosamine-6-phosphate [5] is less than 1e-05 s⁻¹.
With U30G A36U G51A, in the series with glucosamine-6-phosphate [1], the “self-cleavage kobs at 40 uM GlcN6P” value was less than 1e-05 s⁻¹.
In the case of G44A A48G, the “self-cleavage kobs at 40 uM GlcN6P” value with glucosamine-6-phosphate [1] was less than 1e-05 s⁻¹. Moreover, in the series with glucosamine-6-phosphate [2], the “self-cleavage kobs at 160 uM GlcN6P” value was less than 1e-05 s⁻¹. The “self-cleavage kobs at 640 uM GlcN6P” value with glucosamine-6-phosphate [3] is less than 1e-05 s⁻¹. For the same variant, in the series with glucosamine-6-phosphate [4], the “self-cleavage kobs at 2500 uM GlcN6P” value was less than 1e-05 s⁻¹. Also, in the series with glucosamine-6-phosphate [5], the “self-cleavage kobs at 10000 uM GlcN6P” value was less than 1e-05 s⁻¹.
Regarding A14U U45G G62C, in the series with glucosamine-6-phosphate [1], the “self-cleavage kobs at 40 uM GlcN6P” value was less than 1e-05 s⁻¹. In the series with glucosamine-6-phosphate [5], the “self-cleavage kobs at 10000 uM GlcN6P” value was less than 1e-05 s⁻¹.
As for G13C C50G G63A C70G, the “self-cleavage kobs at 40 uM GlcN6P” value with glucosamine-6-phosphate [1] was determined as 0.000201 ± 7.2e-05 s⁻¹. The “self-cleavage kobs at 10000 uM GlcN6P” value with glucosamine-6-phosphate [5] turned out to be 0.000144 ± 4.2e-05 s⁻¹.
For the variant A36C G41U G44C U55G U56C C61G, the “self-cleavage kobs at 40 uM GlcN6P” value in the series with glucosamine-6-phosphate [1] is less than 1e-05 s⁻¹.
In the case of G9U U30C A36C, the “self-cleavage kobs at 40 uM GlcN6P” value in the series with glucosamine-6-phosphate [1] was less than 1e-05 s⁻¹. The “self-cleavage kobs at 640 uM GlcN6P” value with glucosamine-6-phosphate [3] was less than 1e-05 s⁻¹. In the series with glucosamine-6-phosphate [4], the “self-cleavage kobs at 2500 uM GlcN6P” value was less than 1e-05 s⁻¹.
Turning to A12C U31A G32C C34A U47A C71U, the “self-cleavage kobs at 40 uM GlcN6P” value with glucosamine-6-phosphate [1] is less than 1e-05 s⁻¹. Also, the “self-cleavage kobs at 10000 uM GlcN6P” value in the series with glucosamine-6-phosphate [5] is less than 1e-05 s⁻¹.
Turning to G32C G44U U56A, the “self-cleavage kobs at 40 uM GlcN6P” value in the series with glucosamine-6-phosphate [1] was less than 1e-05 s⁻¹. Moreover, the “self-cleavage kobs at 640 uM GlcN6P” value with glucosamine-6-phosphate [3] was less than 1e-05 s⁻¹. In the series with glucosamine-6-phosphate [5], the “self-cleavage kobs at 10000 uM GlcN6P” value was less than 1e-05 s⁻¹.
For the variant A6C U49C, the “self-cleavage kobs at 40 uM GlcN6P” value with glucosamine-6-phosphate [1] is less than 1e-05 s⁻¹. Also, in the series with glucosamine-6-phosphate [2], the “self-cleavage kobs at 160 uM GlcN6P” value was less than 1e-05 s⁻¹. For the same variant, in the series with glucosamine-6-phosphate [5], the “self-cleavage kobs at 10000 uM GlcN6P” value is less than 1e-05 s⁻¹.
With A12C C16U G41U, the “self-cleavage kobs at 40 uM GlcN6P” value in the series with glucosamine-6-phosphate [1] worked out at 6.93e-05 ± 2e-05 s⁻¹. In addition, the “self-cleavage kobs at 640 uM GlcN6P” value with glucosamine-6-phosphate [3] was determined as 0.000163 ± 3.3e-05 s⁻¹. For the same variant, the “self-cleavage kobs at 2500 uM GlcN6P” value in the series with glucosamine-6-phosphate [4] is 0.000447 ± 9.6e-05 s⁻¹. Also, the “self-cleavage kobs at 10000 uM GlcN6P” value with glucosamine-6-phosphate [5] came to 0.000649 ± 0.00015 s⁻¹.
Regarding U56C G59A, the “self-cleavage kobs at 40 uM GlcN6P” value in the series with glucosamine-6-phosphate [1] is less than 1e-05 s⁻¹.
For the variant G7C G66U, in the series with glucosamine-6-phosphate [1], the “self-cleavage kobs at 40 uM GlcN6P” value was less than 1e-05 s⁻¹. Besides, the “self-cleavage kobs at 160 uM GlcN6P” value with glucosamine-6-phosphate [2] is less than 1e-05 s⁻¹. For the same variant, the “self-cleavage kobs at 640 uM GlcN6P” value in the series with glucosamine-6-phosphate [3] is less than 1e-05 s⁻¹. Moreover, the “self-cleavage kobs at 2500 uM GlcN6P” value in the series with glucosamine-6-phosphate [4] is less than 1e-05 s⁻¹.
As to G29U U56A, the “self-cleavage kobs at 40 uM GlcN6P” value with glucosamine-6-phosphate [1] turned out to be 4.68e-05 ± 1.4e-05 s⁻¹. Further, the “self-cleavage kobs at 160 uM GlcN6P” value with glucosamine-6-phosphate [2] amounted to 9.32e-05 ± 2e-05 s⁻¹. Besides, in the series with glucosamine-6-phosphate [3], the “self-cleavage kobs at 640 uM GlcN6P” value was found to be 0.000211 ± 7e-05 s⁻¹. Also, the “self-cleavage kobs at 10000 uM GlcN6P” value with glucosamine-6-phosphate [5] was 0.00285 ± 0.00045 s⁻¹.
As to A6U C16U G38A, the “self-cleavage kobs at 40 uM GlcN6P” value with glucosamine-6-phosphate [1] is less than 1e-05 s⁻¹. Further, in the series with glucosamine-6-phosphate [3], the “self-cleavage kobs at 640 uM GlcN6P” value was less than 1e-05 s⁻¹. For the same variant, in the series with glucosamine-6-phosphate [4], the “self-cleavage kobs at 2500 uM GlcN6P” value is less than 1e-05 s⁻¹.

Values taken from the supplement of paper PMC7125110.
